# Test results reported in US20240272170A1 (QUANTUM SI, published 2024).
# No end group written: not given here. *: point of attachment. FITC = O=C1OC2(c3ccc(O)cc3Oc3cc(O)ccc32)c2ccc(NC(=S)*)cc21
# T1: LA Peptide (fluorescence polarization)
# T1 peptide: LAKLDEESILKQK(FITC)
# T2: IA Peptide (fluorescence polarization)
# T2 peptide: IAKLDEESILKQK(FITC)
# T3: AA Peptide (fluorescence polarization), AAKLDEESILKQ{LYS(FITC)}
# T3 peptide: AAKLDEESILKQK(FITC)
# T4: MA Peptide (fluorescence polarization)
# T4 peptide: MAKLDEESILKQK(FITC)
# T5: RA peptide (XAKLDEESILKQK-FITC, X = R)
# T5 construct: also called peptide with N-terminal arginine
# T5 peptide: RAKLDEESILKQK(FITC)
# T6: target peptide Arg-Ala-Lys-Leu (RAKL)
# T6 peptide: RAKL
# T7: RL peptide (Octet assay of PS621 variants)
# T7 construct: RXKLDEESILKQK with X = L
# T7 peptide: RLKLDEESILKQK
# T8: RE peptide (Octet assay of PS621 variants)
# T8 construct: RXKLDEESILKQK with X = E
# T8 peptide: REKLDEESILKQK
# T9: RS peptide (Octet assay of PS621 variants)
# T9 construct: RXKLDEESILKQK with X = S
# T9 peptide: RSKLDEESILKQK
# T10: HA peptide (Octet assay of PS621 variants)
# T10 construct: XAKLDEESILKQK with X = H
# T10 peptide: HAKLDEESILKQK
# T11: KA peptide (Octet assay of PS621 variants)
# T11 construct: XAKLDEESILKQK with X = K
# T11 peptide: KAKLDEESILKQK
# Assays:
# [1] = target: T12, labeled peptide X…-FITC with N-terminal valine (FITC on the C-terminal Lys); assay: fluorescence polarization; text of paragraph 337
# T12 construct: also called VA peptide; valine peptide
# AA peptide [2] = target: T13, AA peptide; assay: BLI (Octet), peptide on sensor, purified protein in solution
# T13 construct: The peptide was coated on the Octet sensor; also called peptide with N-terminal alanine and penultimate alanine
# VA peptide [3] = target: T14, VA peptide; assay: as above
# T14 construct: The peptide was coated on the Octet sensor; also called peptide with N-terminal valine and penultimate alanine
# LA peptide [4] = target: T15, LA peptide; assay: as above
# T15 construct: The peptide was coated on the Octet sensor; also called peptide with N-terminal leucine and penultimate alanine
# AA peptide [5] = target: T13, AA peptide; assay: BLI (Octet), peptide on sensor, purified protein in solution; second row for PS833
# Excerpt: (§1) In the high-throughput assay, Octet sensors are coated with the peptide of interest and dipped in buffer containing the purified protein. An approximation of relative binding can be obtained by comparing the response after 200 seconds for each protein. Each protein has approximately the same molecular mass and is used at the same concentration, so ranking the proteins by response level in this assay gives an approximation of which proteins have improved binding. Studying the on and off-rate can also give insight into the mechanism of binding.
# VA peptide [6] = target: T14, VA peptide; assay: as above
# Excerpt: as §1
# LA peptide [7] = target: T15, LA peptide; assay: as above
# Excerpt: as §1
# [8] = target: T1, LA Peptide (fluorescence polarization); assay: fluorescence polarization, FITC peptide titrated with protein
# [9] = target: T2, IA Peptide (fluorescence polarization); assay: as above
# [10] = target: T3, AA Peptide (fluorescence polarization), …; assay: as above
# [11] = target: T16, MA peptide (Octet assay of PS557 variants); assay: Octet (BLI), peptide on sensor, response after 200 s association
# T16 construct: Peptide coated on the Octet sensor
# Excerpt: as §1
# [12] = target: T17, IA peptide (Octet assay of PS557 variants); assay: as above
# T17 construct: Peptide coated on the Octet sensor
# Excerpt: as §1
# [13] = target: T18, FA peptide (Octet assay of PS557 variants); assay: as above
# T18 construct: Peptide coated on the Octet sensor
# Excerpt: as §1
# [14] = target: T19, WA peptide (Octet assay of PS557 variants); assay: as above
# T19 construct: Peptide coated on the Octet sensor
# Excerpt: as §1
# [15] = target: T20, YA peptide (Octet assay of PS557 variants); assay: as above
# T20 construct: Peptide coated on the Octet sensor
# Excerpt: as §1
# [16] = target: T21, AA peptide (Octet assay of PS557 variants); assay: as above
# T21 construct: Peptide coated on the Octet sensor
# Excerpt: (§2) In the high-throughput assay, Octet sensors are coated with the peptide of interest and dipped in buffer containing the purified protein. […] Studying the on and off-rate can also give insight into the mechanism of binding.
# [17] = target: T22, VA peptide (Octet assay of PS557 variants); assay: as above
# T22 construct: Peptide coated on the Octet sensor
# Excerpt: as §2
# [18] = target: T23, LA peptide (Octet assay of PS557 variants); assay: as above
# T23 construct: Peptide coated on the Octet sensor
# Excerpt: as §2
# [19] = target: T16, MA peptide (Octet assay of PS557 …); assay: as above; remark: listed apart in the source
# Excerpt: as §2
# [20] = target: T17, IA peptide (Octet assay of PS557 …); assay: as above; remark: listed apart in the source
# Excerpt: as §2
# [21] = target: T18, FA peptide (Octet assay of PS557 …); assay: as above; remark: listed apart in the source
# Excerpt: as §2
# [22] = target: VA Peptide (fluorescence polarization) (FITC on the C-terminal lysine); assay: fluorescence polarization, FITC peptide titrated with protein
# [23] = target: T4, MA Peptide (fluorescence polarization); assay: as above
# [24] = target: T16, MA peptide (Octet assay of PS557 …); assay: Octet (BLI), peptide on sensor, response after 200 s association; second PS833 row
# Excerpt: as §1
# [25] = target: T17, IA peptide (Octet assay of PS557 …); assay: as above
# Excerpt: as §1
# [26] = target: T18, FA peptide (Octet assay of PS557 …); assay: as above
# Excerpt: as §1
# [27] = target: T19, WA peptide (Octet assay of PS557 …); assay: as above
# Excerpt: as §1
# [28] = target: T20, YA peptide (Octet assay of PS557 …); assay: as above
# Excerpt: as §1
# [29] = target: T12, labeled peptide X…-FITC with N-terminal …; assay: fluorescence polarization
# [30] = target: T5, RA peptide (XAKLDEESILKQK-FITC, X = R); assay: fluorescence polarization titration, 20 C
# Description: (§3) Binding affinity was measured by polarization using a labeled peptide. The polarization response and total intensity measurements were carried out at 20° C. on a microplate fluorometer with 480 nm excitation and 530 nm emission. […] Multiple analyses were performed at increasing recognizer concentration at a fixed concentration of a target peptide to obtain a titration curve. An equilibrium polarization response at each concentration was plotted and fit to calculate the KD.
# (§4) Fluorescence polarization assays were performed with all candidates, and single point binding responses were measured at a fixed concentration of the binders (FIG. 13A). […] We carried out multiple polarization binding titration analysis at increasing concentration of binder protein, and the Kds were determined from the titration curves (FIG. 13B).
# [31] = target: T6, target peptide Arg-Ala-Lys-Leu (RAKL); assay: purified protein:peptide complex, X-ray crystallography
# [32] = target: T5, RA peptide (XAKLDEESILKQK-FITC, X = R); assay: fluorescence polarization titration, PS1122 0-5000 nM
# Description: as §3, §4
# [33] = target: T24, RA peptide (Octet assay of PS621 variants); assay: Octet (BLI), 30 C
# T24 construct: X… with X = R
# Excerpt: (§5) Peptides of the sequence RXKLDEESILKQK (SEQ ID NO: 1076) were also used to evaluate the penultimate residue effect.
# [34] = target: T7, RL peptide (Octet assay of PS621 …); assay: Octet (BLI), 30 C
# Excerpt: as §5
# [35] = target: T8, RE peptide (Octet assay of PS621 …); assay: Octet (BLI), 30 C
# Excerpt: as §5
# [36] = target: T25, RQ peptide (Octet assay of PS621 variants); assay: Octet (BLI), 30 C
# T25 construct: RX… with X = Q
# Excerpt: as §5
# [37] = target: T9, RS peptide (Octet assay of PS621 …); assay: Octet (BLI), 30 C
# Excerpt: as §5
# [38] = target: T26, RR peptide (Octet assay of PS621 variants); assay: Octet (BLI), 30 C
# T26 construct: RX… with X = R
# Excerpt: as §5
# [39] = target: T27, RF peptide (Octet assay of PS621 variants); assay: Octet (BLI), 30 C
# T27 construct: RX… with X = F
# Excerpt: as §5
# [40] = target: T10, HA peptide (Octet assay of PS621 …); assay: Octet (BLI), 30 C
# [41] = target: T11, KA peptide (Octet assay of PS621 …); assay: Octet (BLI), 30 C
# [42] = target: RA Peptide (stopped-flow); assay: stopped-flow rapid kinetics
# [43] = target: RL Peptide (stopped-flow); assay: stopped-flow rapid kinetics
# [44] = target: T28, HL Peptide (stopped-flow); assay: stopped-flow rapid kinetics
# T28 construct: the text around it speaks of HA peptide
binder,measurement,setting,value
"PS557 (other, tag of the purified construct not specified; also called wild-type protein; WT) MPTAASATESAIEDTPAPARPEVDGRTKPKRQPRYHVVLWNDDDHTYQYVVVMLQSLFGHPPERGYRLAKEVDTQGRVIVLTTTREHAELKRDQIHAFGYDRLLARSKGSMKASIEAEE",Kd,[1],1170 nM
"PS833 (designed binder, Variant of PS557) MPTAASATESAIEDTPAPARPVVDGRTKPKRQPRYHVVLWDDDDHTYQYVVVMLQSLFGHPPERGYRLAKEMDTQGRVIVLTTTREHAELKRDQIHAFGYDRLLARSKGSMKASIEAEE [PS833, listing 1 of 2 here]",Octet response after 200 sec association,AA peptide [2],1 nm
same,Octet response after 200 sec association,VA peptide [3],8.6 nm
same,Octet response after 200 sec association,LA peptide [4],10.7 nm
same,Octet response after 200 sec association,AA peptide [5],0.849 nm
same,Octet response after 200 sec association,VA peptide [6],10.4 nm
same,Octet response after 200 sec association,LA peptide [7],12.4 nm
"PS557 (other, Natural ClpS parent protein; also called WT; wild-type protein) MPTAASATESAIEDTPAPARPEVDGRTKPKRQPRYHVVLWNDDDHTYQYVVVMLQSLFGHPPERGYRLAKEVDTQGRVIVLTTTREHAELKRDQIHAFGYDRLLARSKGSMKASIEAEE",Kd,[8],52 nM
same,Kd,[9],289 nM
same,Kd,[10],10000 nM
same,Octet response,[11],1.68 nm
same,Octet response,[12],8.79 nm
same,Octet response,[13],0.0096 nm
same,Octet response,[14],0.0049 nm
same,Octet response,[15],0.0431 nm
same,Octet response,[16],0.612 nm
same,Octet response,[17],4.8 nm
same,Octet response,[18],7.16 nm
same,Octet response,[19],1.95 nm
same,Octet response,[20],7.2 nm
same,Octet response,[21],0.634 nm
"PS833 (designed binder, Variant of PS557) MPTAASATESAIEDTPAPARPVVDGRTKPKRQPRYHVVLWDDDDHTYQYVVVMLQSLFGHPPERGYRLAKEMDTQGRVIVLTTTREHAELKRDQIHAFGYDRLLARSKGSMKASIEAEE [PS833, listing 2 of 2 here]",Kd,[22],312 nM
same,Kd,[10],7080 nM
same,Kd,[23],1040 nM
same,Octet response,[11],5.11 nm
same,Octet response,[12],9.26 nm
same,Octet response,[13],0.0509 nm
same,Octet response,[14],0.00561 nm
same,Octet response,[15],0.117 nm
same,Octet response,[24],7.01 nm
same,Octet response,[25],10.8 nm
same,Octet response,[26],0.0889 nm
same,Octet response,[27],0.0006 nm
same,Octet response,[28],0.109 nm
"PS824 (designed binder, PS557 with I12F, N41D, Q55R, V72M) MPTAASATESAFEDTPAPARPEVDGRTKPKRQPRYHVVLWDDDDHTYQYVVVMLRSLFGHPPERGYRLAKEMDTQGRVIVLTTTREHAELKRDQIHAFGYDRLLARSKGSMKASIEAEE",fold improvement of binding against the wild-type protein PS557,[29],5 fold
"PS1122 (designed binder, PS621 with T47L, I63E, E70T; on chip labeled with streptavidin-tetraCy3) MHSKFSHAGRICGAKFKVGEPIYRCKECSFDDTCVLCVNCFNPKDHLGHHVYTTICTEFNNGECDCGDKTAWNHTLFCKAEEG",Kd,[30],70 nM
same,binding result,[31],binds
same,Kd,[32],70 nM
"PS621 (other, UBR protein (UBR-box) parent of PS1101-PS1122) MHSKFSHAGRICGAKFKVGEPIYRCKECSFDDTCVLCVNCFNPKDHTGHHVYTTICTEFNNGICDCGDKEAWNHTLFCKAEEG",Octet response,[33],9.3
same,Octet response,[34],10.2
same,Octet response,[35],5.8
same,Octet response,[36],7.4
same,Octet response,[37],7.1
same,Octet response,[38],6.3
same,Octet response,[39],8.4
same,Octet response,[40],2
same,Octet response,[41],5.2
same,koff,[42],61.8 s⁻¹
same,koff,[43],17.7 s⁻¹
"PS1115 (designed binder, Variant of PS621) MHSKFSHAGRICGAKFKVGEPIYRCKECSFDDTCVLCVNCFNPKDHRGHHVYTTICTERNNGICDCGDKEAWNHELFCKAEEG",Octet response,[33],10.8
same,Octet response,[34],11.8
same,Octet response,[35],7.6
same,Octet response,[36],9.1
same,Octet response,[37],8.5
same,Octet response,[38],6.7
same,Octet response,[39],10
same,Octet response,[40],3
same,Octet response,[41],6.5
same,koff,[43],14.4 s⁻¹
same,koff,[44],40.2 s⁻¹
